Source: publication PMC4997581

Tests used:
Assay in all cases: co-IP
[1] = biological target: Cyclin H (human (endogenous in 293T and HFF)) (UniProt P51946)
[2] = biological target: Cyclin T1 (human (endogenous in 293T and HFF)) (UniProt O60563)
[3] = biological target: Cyclin B1 (human (endogenous in 293T and HFF)) (UniProt P14635)
Sequence of Cyclin B1 (human (endogenous in 293T and HFF)) (P14635 whole entry): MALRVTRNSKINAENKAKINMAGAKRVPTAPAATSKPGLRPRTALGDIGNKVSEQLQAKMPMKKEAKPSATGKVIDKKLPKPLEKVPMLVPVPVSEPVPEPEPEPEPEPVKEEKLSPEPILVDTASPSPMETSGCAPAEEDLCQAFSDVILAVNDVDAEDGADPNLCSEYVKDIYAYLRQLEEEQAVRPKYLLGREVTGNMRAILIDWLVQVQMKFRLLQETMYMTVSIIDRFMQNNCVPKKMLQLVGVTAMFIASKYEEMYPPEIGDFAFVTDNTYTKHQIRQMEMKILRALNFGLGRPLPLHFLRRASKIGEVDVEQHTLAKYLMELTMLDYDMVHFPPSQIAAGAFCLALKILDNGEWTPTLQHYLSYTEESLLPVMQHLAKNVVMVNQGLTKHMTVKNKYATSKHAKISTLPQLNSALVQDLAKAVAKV

Sequence of Cyclin T1 (human (endogenous in 293T and HFF)) (O60563 whole entry): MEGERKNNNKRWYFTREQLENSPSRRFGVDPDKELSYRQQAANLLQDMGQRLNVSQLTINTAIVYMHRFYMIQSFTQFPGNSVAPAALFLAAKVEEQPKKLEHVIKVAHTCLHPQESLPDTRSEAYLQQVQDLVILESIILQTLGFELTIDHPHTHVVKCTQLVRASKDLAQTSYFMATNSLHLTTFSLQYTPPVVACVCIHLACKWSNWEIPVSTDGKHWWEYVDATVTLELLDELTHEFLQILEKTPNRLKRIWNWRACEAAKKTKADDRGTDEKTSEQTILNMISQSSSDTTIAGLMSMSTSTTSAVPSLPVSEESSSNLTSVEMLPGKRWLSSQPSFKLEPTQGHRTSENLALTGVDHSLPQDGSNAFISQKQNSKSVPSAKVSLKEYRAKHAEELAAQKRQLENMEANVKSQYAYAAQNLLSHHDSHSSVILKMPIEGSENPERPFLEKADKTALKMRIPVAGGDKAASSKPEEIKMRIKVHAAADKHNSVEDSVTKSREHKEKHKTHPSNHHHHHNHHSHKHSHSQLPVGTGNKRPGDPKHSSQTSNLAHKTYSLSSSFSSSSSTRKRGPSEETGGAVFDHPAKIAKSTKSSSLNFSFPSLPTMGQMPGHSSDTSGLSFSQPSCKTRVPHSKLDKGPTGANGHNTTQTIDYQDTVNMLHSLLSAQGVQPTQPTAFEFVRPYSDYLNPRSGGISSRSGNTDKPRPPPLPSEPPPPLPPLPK
Sequence of Cyclin H (human (endogenous in 293T and HFF)) (P51946 whole entry): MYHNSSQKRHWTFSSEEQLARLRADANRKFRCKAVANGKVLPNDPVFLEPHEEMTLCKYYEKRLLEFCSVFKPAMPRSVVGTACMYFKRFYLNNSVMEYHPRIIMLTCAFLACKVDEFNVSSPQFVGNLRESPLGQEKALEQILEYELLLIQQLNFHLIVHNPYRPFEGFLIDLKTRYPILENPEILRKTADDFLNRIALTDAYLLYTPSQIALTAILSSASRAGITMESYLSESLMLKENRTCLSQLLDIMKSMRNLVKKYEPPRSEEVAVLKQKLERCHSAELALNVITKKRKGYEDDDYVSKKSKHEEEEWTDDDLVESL

Substance | pUL97 co-IP Western blot signal relative to cyclin B1 [1] | pUL97 co-IP Western blot signal relative to cyclin B1 [2] | pUL97 co-IP Western blot signal relative to cyclin B1 [3]
HCMV protein kinase pUL97, Flag-tagged (pUL97-Flag) (from UniProt P16788 1-707) (natural protein) | 4% | 9% | –
Protein kinase pUL97 of HCMV AD169, in infected cells (natural protein) | 160% | 77% | 100%
pUL97 stably expressed in transduced HFFs (from UniProt P16788 1-707) (natural protein) | – | 42% | –
